# From the nanobody polyreactivity screen of Harvey et al. (2022)
# Test: yeast display, Sf9 membrane polyspecificity reagent, FACS + sequencing; frameworks hold sequencing errors
# Summary of the method: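 Sorting gates, low and high (top ~1%), were placed on anti-HA fluorescence to track expression and on streptavidin fluorescence to track reagent binding. A clone's polyreactivity label is taken from the gate it came out of. The reagent was 10% biotinylated, detergent-solubilized Sf9 membrane, applied for 1 hour at 4 °C to galactose-induced yeast display cells.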
row,Sequence,polyreactivity (PSR sort gate)
1,QVQLQESGGGLVQASGSLRLSCAASGNIFPDYLMGWYRLAPGKEREFVANITGGSTTNYADSVKGRFTISRDNATNTVYLQMNSLKPEDTAVYYCEVNFGTVVLYLYWGQGTQVTVSS,high polyreactivity
2,QVQLQESGGGLVQEGGSLRLSCAASGNISPPADMGWYRQAPGKERELVASIGTGGTTNYADSVKGRCTISRDNAKNTVYLQMNSLKPDDTAVYYCAAVRYEYNPYDYWGQGTQVTVSS,low polyreactivity
3,QVQLQESGGGLVQVGGSLRLSCAASGTIFIYGFLGWNRQAPGKERELVASINLGGITNYADSVKGRFTISRDNAKNTVYLQMISLKPEDTAVYYCAAYVVTGQNYGYWGQGTQVTVSC,low polyreactivity
4,QVQLQESGGGLVQVGGSLRLSCAASGTIFIYGFLGWNRQAQGKELELVASINLGGITNYADSVKGRFTISRDNAKNTLYLQMISLKTEDTAVYYCAAYVVTGQNYGYWGQGTQVTVSS,low polyreactivity
5,QVQLQESGGGLVQVGGSLRLSCAASGTIIIYGFLGWNRQAPGKERELVASINLGGITNYADSVKGRFTISRDNAKNTVYLQMISLKPEDTAVYYCAAYVVTGQNYGYWGQGTQVTVSS,low polyreactivity
6,QVQLQESGGGPVLAGGSLRLSCAASGTIFVPLDMGWYRQAPGKEREFVATIGSGSSTYYADSVKGSFTISRDNVKNTVYLQMNSLKPEDTAVYYCAVSAAEQSRHYYWDQGTQVTVSS,low polyreactivity
7,QVQLQESGGLVQAGGSLRLSCAASGSISGRNVMGWYRQAPGKEREFVASITDGSSTNYADSVKGRVTISRDNAKNTVYLQMNSLKPKDTAVYYCAAYAQRAKSFGYWGRGTQVTVSS,low polyreactivity
8,QVQLQESGGRLEQAGGSLRPSCAASGSISDGVPMRWNRQAPGEERELVATTVLGATTNYADSVKGRFTISRGNAKHTVYLQMNSLKPEETAVYYCAARLRYDKGFSYWGQGTQVTVSS,low polyreactivity
9,QVQLQESGGVLEQARGSLRLSCAASGFIFARNYMGWYSQAPGKERELVAGIGVGAITNYADSVKGRFTISRDNAKNTVYLQMNSLETEESAVYYCAVGDTVLGYHYYWGQGTQVTVSN,low polyreactivity
10,QVQLQESGGVLVQAGGSLRQSYAASGYIFPSLAMGWYRQAPGKEREFVAAIGRGSTNNYADSVKGRFTISRDNAKNTAYQQMNSLKPEDTAVYYCAAAASPLTRHLYWGQGTQVTVSS,low polyreactivity
11,QVQLQESGSGLVQAGGSLRLSCAAIGAIFPAYLMGWYRQAPGKERELVAGISYGSITYCADSVKGRFNISRDNAKNTVYLQMNSLKPEYTAVYYCAVWRPGGDEYYYWGQGTQVTVSS,low polyreactivity
12,QVQLQESGVGLVQAYGSLRLSCAAIGSIFGYYYMGSYRQAPGKDRELVATINICGITNYADSVKGRFTISRDNAKYTVYLQMKSLKRDDTAVFYCAADEYAQRDLGYWGQGTQVTVSS,low polyreactivity
13,QVQLQESGVRLVQAGGSLRLSCAASGPISRRSTMGWYRQAPGKERELVTAITRGTNTNYADSVKGRFTISRDNAKNTEYLQMNSLKPEDTAVYYCAAYGVLKPSRGDAVFHRYWGQGTQVTVSS,low polyreactivity
14,QVQLQESRGGLVQAGGSLRLSCAASGSITHYIFMGWYRQAPGKEREFVAGIGYGGTTNYADSVKGRFTISRDNAKNTVFLQMNSLKPEDTAMYYCAAREATEFYLYYWGQGTQVTVSS,low polyreactivity
15,QVQLQESSGGLVQAGGSLRMSCAASGTIFHFHIMGWYRQAPGKEREFVAAISYGTSTYYADSVKGRFTISRDNAKNTVYLQMNSQKPEDTGVYYCAVYDYLEVYCWYWGQGTQVTVSS,low polyreactivity
16,QVQLQESSGGLVQAGGTLRMSCAASGTIFHFHIMGWYRQAPGKEREFVAAISYGTSTYYADSVKCRFTISRDNAKNTVFLQMNSQNPEDNEVYYCAVYDYLEVYCWYWGQGTQVTVSS,low polyreactivity
17,QVQLQESVGGLVQACGSQRLICAASGYIFSHQYMGCYRQAPGKERELVASMSPGATTNYADRVKGRFTISRDNAKNTVYLQMNSLKTEDTAVYYYAVYQILDRRLSYWGQGTQVTVSC,high polyreactivity
18,QVQLQESVGGLVQAGGSLRLSCAASGNIFPTHRMGWYRQAPGKELEFVATISDGGSTNYADSVKGRFTISRDHAKNTVYLQMNSLKPEDTAVYYCAVLSLGRLRHYYWGQGTQVTVSS,low polyreactivity
19,QVQLQGSGGGLAQAGDSLRLSCAASGTIFSEYNNGLVSPGAGQRTRTCCRYWCWGNTYYADSAKGRFTTSRDNAKNTVYLQKHSLKPADTAVYYCAFNRPFPSRHIYRGQGTQVTVSS,high polyreactivity
20,QVQLQGSGGGLAQAGDSLRLSCAASGTIFSEYNNGLVSPGAGQRTRTCCRYWCWGNTYYADSAKRRFTTSRDNAKNTLYLQKNSLKPEDTAVYYCAFNRPYPSRHIYRGQGTQVTVSS,high polyreactivity
21,QVQLQGSGGGLVQAGGSLRLSCAASGNIFDADIMAWYRQAPGKESELVASITDGGSTNYADSVKGRFTISRDNAKNTVYLQMNSLKQEDTAVYYCADIAYPDIPTYFDYDSDCFYWSQGTQVTVSS,high polyreactivity
22,QVQLVASGGGLLQAGGSLRLSCAASGRILRVYAMGWYRPAPGKESELVAAITWRGGSTYYADSVKGRFTISRDNAKNTVYLQMNSLKPEDTAVYYCAAEAYSYGYSALLYDYWGQGTQVTVSS,high polyreactivity

row,Sequence,polyreactivity (PSR sort gate)
1,QVQLVASGGGLVHAGASLRLSCAASGRIFTGNVMGWYRQAHWKERELVAAISVSGGRTYYADSVKGRFTISRDYAKNTVYLQMNSLKPVDSAVYYCNARYSRVWYGGDYWGQGTQVTVSS,high polyreactivity
2,QVQLVASGGGLVQAGGSLRISCAASGSIIYYYAMGWYRHAPRKERELVAAISTSSGRTYYADSVKGRFTISRDNAKNTVYLQMNSLKPEDTAVYYCANEIPFTRYTWPRYNYWGQGTQVTVSS,high polyreactivity
3,QVQLVASGGGLVQAGGSLRLRCAASGFIFRYNTMGWYRQAPGKEREMVAVINRGGSTYYADSVKGRFTISRDNAKNTVYLQLNSLKAEDTGVYDCNVAKFGRYYYWGQGTQVTVSS,high polyreactivity
4,QVQLVASGGGLVQAGGSLRLSCAASGFIVSVYAMGWYRQAPGKERELVAVISTSGGRTYYADSVKGRFTISRDNAQNTVYLQMNSLKPEDTAVYYCAADGFQYTLGNYYWGQGTHVTVSS,high polyreactivity
5,QVQLVASGGGLVQAGGSLRLSCAASGLIIRYYAMGWYRQAPGKEREFVAAITWNGGSTYADSVKGRFTISRDNAKNTVNLQMNSLIPEDTAVYYCAADLSYWDDFDYSGQGTQVTVSS,low polyreactivity
6,QVQLVASGGGLVQAGGSLRLSCAASGSTFARYAMGWYTPAPGKERELVAAITEGGDRTSYADSVKGRFTISRDNAKNHVYLQMHSLKPEDTAVYYCAAERRYESWYFGYRTMDYWGQGTQVTVSS,low polyreactivity
7,QVQLVASGGGLVQAGGSLRLSCAASGSTFDIYAMGWYRQAPGKERELVAAISVSDVYTYYADSVKGRFTISRDNAKNTVYLQMNSLKPEDTAVYYCAAETPTHDEWGQGTQVTVSS,high polyreactivity
8,QVQLVASGGGLVQAGGSLRLSCAASGSTFTQNAMGWDRPAPGQEREVVAAISWSGARTYYADSVKGRFTISRHNAKNTVYLQMNSRKPEDPAVYDCNNYARKRGTTYDYWGHGTQVTVSS,high polyreactivity
9,QVQLVASGGGLVQAGGSLRLSCAASGSTLDVYAMGWYRQAPGKERELVASISGSGGRTYYADSVKGRFTISRDNAKNTVYLQLNSQNPEDTAVYYCAADVRSYVASRSYRYDYWGQGNQVTVSS,low polyreactivity
10,QVQLVASGGGLVQAGGSLRLSCAATGSIFYFYAMGWYRPAPWKERELVAAITDCGASTRYADSVKGRFTISRDNAKNTVYLQMNSLKPEDTAVYYCAAVRYHISYREYYWGQGTQVTESS,high polyreactivity
11,QVQLVASGGGLVQAGGTLRLSCAASGRIFGRYGMGWYSQAPGKERELVAAISRSGDRTYYADSVKGRFTISRDNAKNTVYLPMNSLKPEDTAVYYCAAYSYRYDYWGQGTQVTVAS,high polyreactivity
12,QVQLVASGGGLVQSGGSLRLSCAASGLTFEQYAMGWYRQAPGKERELVAAISRRGTSTYYADSVKARFTISRDYAKNYVYLQMNSRKPEDTAVYYCNAGWWYLGSPFDRDYWGQGTLVTVSS,high polyreactivity
13,QVQLVDSCGGLVQAGGSLRLSCYDSGSTFPYKAMGWYRQAPGKERELVAAITSGASTNYADSVKGRFTISRDNAKNTVYLQMNSLTPEDTAVYYCAAQSYGKRIWSPRFQLNYWGQGTQVTVSS,low polyreactivity
14,QVQLVDSGGCLFQAGGTLRLSCAASGFTLRAYAMGWYRQGPGKEREFVAVISRSDGSTYYADTVKGRFTISRENAKNTVYLQMNSLKPEDSAVYYCADKHRGAKYDYWGQGTQVTVSS,low polyreactivity
15,QVQLVDSGGCLVQAGGSLRLSCAASGRTDGINAMGWYRQAPGKERELVAAIDSIDGTTYYADSVKGRFTISRDNAKNTVYLQMNSLKQEDTAVYYCAAEFISSYDYWGQGTQVTVSS,high polyreactivity
16,QVQLVDSGGCLVQAGGSLRLSCAASGRTFYRYAMGWYRQAPGKEREFVARITTSGGSTYYADSVKGRFTISRDNAKNTVYLKMNSLKPEDTEVYYCNARGVTYAFFRFDYWGQGTQVTVSS,high polyreactivity
17,QVQLVDSGGGIVQAGGSLRLSCPASGSTFGSYALGWSRQKPGKEREWVAAITSAGSTNYADSVKGRFTISRDNAKNTVYLQMNSLKPEDTAVYYCNDVRYYSYQYDPEVTHRYGYWGQGSQVTVSS,high polyreactivity
18,QVQLVDSGGGLDQAGGSLPLSCAASGSTFVAYAMGWYRQAPGKERELVADNSTSDGSTRYADSVKGRFTISRDNAKNTVYLQMNSLKPEDTAVYYCAAGSEYYSYGGVRFSFYYWGQGTQVTVSS,low polyreactivity
19,QVQLVDSGGGLDQAGGSLRLSCAAAGSIFYSYAMGWYSQATGKDSELVADISSDGSTNYADSVKGRFTISRDNAKNTVYVQINSLKPEDTAVYYCAKKPSSARYVTIGFDEWGHGTQVTVSS,low polyreactivity
20,QVQLVDSGGGLFQPGGSLRLSCAASGSTFSDNAMGWYRQAPGKERELVASISSDDGSTYADSVKGRFTISRDNAMNTVYLQMNSLKSEDTAVYYCAADGFLAIYAAEYDYWGQGTQVTVSS,low polyreactivity
21,QVQLVDSGGGLVPAGGSLRLSCAASGFTFTRYVMGWYRQAPGKERELVAAISGSGGSTNYADSVKGRFTISRDNAKNTVYLQMNSLKPEDTAVYYCAVGYRGWDGYWGQGTQVTVSS,high polyreactivity
